# Assay results: patent publication US20200199241A1 (Chugai, published 2020)
# Numbering of substitutions follows the chain as printed. Names may count otherwise.
# T1: human FcγRIIb (human, UniProt P31994 43-217, limits assumed)
# T1 construct: also called FcgRIIb
# T1 sequence: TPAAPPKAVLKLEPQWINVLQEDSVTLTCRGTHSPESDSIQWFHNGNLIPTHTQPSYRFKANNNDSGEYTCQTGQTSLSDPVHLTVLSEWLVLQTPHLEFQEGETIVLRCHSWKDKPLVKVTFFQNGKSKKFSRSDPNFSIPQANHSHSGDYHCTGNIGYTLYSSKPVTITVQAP
# T2: human FcγRIIa(H) (human, UniProt P12318 36-217)
# T2 construct: also called FcgRIIaH; FcγRIIa type H
# T2 sequence: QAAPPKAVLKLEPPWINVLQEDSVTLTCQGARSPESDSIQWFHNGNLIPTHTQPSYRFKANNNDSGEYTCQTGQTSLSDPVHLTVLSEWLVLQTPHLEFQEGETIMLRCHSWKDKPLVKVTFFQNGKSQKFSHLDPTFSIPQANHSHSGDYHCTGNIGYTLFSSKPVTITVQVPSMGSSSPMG
# T3: human FcγRIIa(R) (human, UniProt P12318 36-217)
# T3 construct: also called FcgRIIaR; FcγRIIa type R
# T3 chain: T2 sequence with H133R
# B1: GpH7-B3 variant S267F/GpL16-k0 (antibody, human IgG1)
# heavy: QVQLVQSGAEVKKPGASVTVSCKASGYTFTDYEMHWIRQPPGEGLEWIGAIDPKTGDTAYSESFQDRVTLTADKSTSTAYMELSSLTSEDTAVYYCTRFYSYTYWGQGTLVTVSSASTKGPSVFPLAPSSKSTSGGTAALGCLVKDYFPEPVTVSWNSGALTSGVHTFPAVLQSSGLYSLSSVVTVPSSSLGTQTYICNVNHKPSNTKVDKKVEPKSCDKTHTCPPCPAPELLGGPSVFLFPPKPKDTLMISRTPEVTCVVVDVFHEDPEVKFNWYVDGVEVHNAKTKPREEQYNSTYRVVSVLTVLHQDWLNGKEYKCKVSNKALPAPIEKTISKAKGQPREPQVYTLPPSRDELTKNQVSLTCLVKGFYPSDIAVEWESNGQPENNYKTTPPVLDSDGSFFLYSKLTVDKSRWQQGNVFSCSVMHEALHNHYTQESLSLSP
# light: DIVMTQSPLSLPVTPGEPASISCQASESLVHSNRNTYLHWYLQKPGQSPQLLIYKVSNRFSGVPDRFSGSGSGTDFTLKISRVEAEDVGVYYCSQNTHVPPTFGQGTKVEIE
# notes: copies: 2 + 2
# B2: GpH7-B3 variant S239K/GpL16-k0 (antibody, human IgG1)
# heavy: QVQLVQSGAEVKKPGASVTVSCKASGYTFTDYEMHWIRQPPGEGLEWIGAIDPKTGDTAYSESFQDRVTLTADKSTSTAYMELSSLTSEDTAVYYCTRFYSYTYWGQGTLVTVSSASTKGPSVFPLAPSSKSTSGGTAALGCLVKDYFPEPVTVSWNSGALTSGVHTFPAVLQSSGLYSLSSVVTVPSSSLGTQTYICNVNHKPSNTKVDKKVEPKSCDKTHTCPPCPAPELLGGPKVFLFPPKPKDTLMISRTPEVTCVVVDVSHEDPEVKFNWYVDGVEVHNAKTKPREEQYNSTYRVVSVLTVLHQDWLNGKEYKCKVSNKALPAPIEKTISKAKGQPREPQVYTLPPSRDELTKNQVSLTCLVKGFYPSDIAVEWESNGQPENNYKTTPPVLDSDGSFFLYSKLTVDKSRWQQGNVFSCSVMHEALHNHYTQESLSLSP
# light: B1 light
# notes: copies: 2 + 2
# B3: GpH7-B3 variant V266T/GpL16-k0 (antibody, human IgG1)
# heavy: not shown
# light: B1 light
# notes: copies: 2 + 2
# B4: GpH7-B3 variant V266Q/GpL16-k0 (antibody, human IgG1)
# heavy: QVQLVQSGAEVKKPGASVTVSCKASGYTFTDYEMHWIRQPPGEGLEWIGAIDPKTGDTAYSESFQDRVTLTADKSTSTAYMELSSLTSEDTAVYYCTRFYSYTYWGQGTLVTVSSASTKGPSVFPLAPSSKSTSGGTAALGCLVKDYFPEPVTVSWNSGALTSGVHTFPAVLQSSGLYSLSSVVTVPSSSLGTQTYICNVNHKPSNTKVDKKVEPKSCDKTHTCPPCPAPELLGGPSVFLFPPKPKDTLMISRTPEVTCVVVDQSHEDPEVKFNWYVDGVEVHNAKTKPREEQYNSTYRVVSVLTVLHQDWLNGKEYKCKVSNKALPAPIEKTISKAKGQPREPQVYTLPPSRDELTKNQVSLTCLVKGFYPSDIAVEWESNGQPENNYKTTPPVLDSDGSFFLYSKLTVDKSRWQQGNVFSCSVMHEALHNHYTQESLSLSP
# light: B1 light
# notes: copies: 2 + 2
# B5: GpH7-B3 variant S267W/GpL16-k0 (antibody, human IgG1)
# heavy: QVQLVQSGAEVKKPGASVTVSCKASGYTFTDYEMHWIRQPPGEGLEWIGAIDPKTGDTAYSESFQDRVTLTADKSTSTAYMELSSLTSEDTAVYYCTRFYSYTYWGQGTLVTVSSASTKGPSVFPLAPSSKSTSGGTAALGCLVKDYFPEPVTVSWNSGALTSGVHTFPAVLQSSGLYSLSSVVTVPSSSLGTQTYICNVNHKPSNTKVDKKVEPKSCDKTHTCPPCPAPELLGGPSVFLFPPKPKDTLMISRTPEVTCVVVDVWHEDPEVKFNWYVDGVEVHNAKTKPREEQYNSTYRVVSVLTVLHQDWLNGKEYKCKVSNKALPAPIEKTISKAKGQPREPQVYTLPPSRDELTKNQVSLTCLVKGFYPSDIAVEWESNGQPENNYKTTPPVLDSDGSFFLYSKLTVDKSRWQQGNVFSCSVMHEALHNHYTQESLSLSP
# light: B1 light
# notes: copies: 2 + 2
# B6: GpH7-B3 variant S239Y/GpL16-k0 (antibody, human IgG1)
# heavy: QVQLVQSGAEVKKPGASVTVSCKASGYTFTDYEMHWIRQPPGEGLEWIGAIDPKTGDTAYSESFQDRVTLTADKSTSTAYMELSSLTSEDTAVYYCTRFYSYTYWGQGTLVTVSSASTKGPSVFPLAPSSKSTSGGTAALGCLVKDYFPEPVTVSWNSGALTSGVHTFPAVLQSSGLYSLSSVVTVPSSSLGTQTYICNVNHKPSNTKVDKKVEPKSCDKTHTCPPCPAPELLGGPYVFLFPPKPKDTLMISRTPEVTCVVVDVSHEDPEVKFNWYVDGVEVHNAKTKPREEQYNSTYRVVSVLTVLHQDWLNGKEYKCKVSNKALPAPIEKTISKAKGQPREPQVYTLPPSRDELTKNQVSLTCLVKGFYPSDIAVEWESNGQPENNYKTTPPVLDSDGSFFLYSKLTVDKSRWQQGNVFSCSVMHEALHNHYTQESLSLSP
# light: B1 light
# notes: copies: 2 + 2
# B7: GpH7-B3 variant S239P/GpL16-k0 (antibody, human IgG1)
# heavy: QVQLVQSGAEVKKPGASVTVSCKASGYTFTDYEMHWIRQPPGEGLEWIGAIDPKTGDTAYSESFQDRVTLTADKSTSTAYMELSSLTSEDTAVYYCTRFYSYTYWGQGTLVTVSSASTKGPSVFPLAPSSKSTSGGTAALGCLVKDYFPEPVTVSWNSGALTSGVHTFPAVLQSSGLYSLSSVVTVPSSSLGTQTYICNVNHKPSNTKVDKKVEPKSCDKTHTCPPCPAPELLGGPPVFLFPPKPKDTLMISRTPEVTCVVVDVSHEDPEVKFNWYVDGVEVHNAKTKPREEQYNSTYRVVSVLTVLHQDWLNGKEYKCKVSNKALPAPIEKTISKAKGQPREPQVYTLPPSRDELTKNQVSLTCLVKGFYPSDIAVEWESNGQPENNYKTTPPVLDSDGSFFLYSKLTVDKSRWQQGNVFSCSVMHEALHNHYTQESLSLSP
# light: B1 light
# notes: copies: 2 + 2
# B8: GpH7-B3 variant S239H/GpL16-k0 (antibody, human IgG1)
# heavy: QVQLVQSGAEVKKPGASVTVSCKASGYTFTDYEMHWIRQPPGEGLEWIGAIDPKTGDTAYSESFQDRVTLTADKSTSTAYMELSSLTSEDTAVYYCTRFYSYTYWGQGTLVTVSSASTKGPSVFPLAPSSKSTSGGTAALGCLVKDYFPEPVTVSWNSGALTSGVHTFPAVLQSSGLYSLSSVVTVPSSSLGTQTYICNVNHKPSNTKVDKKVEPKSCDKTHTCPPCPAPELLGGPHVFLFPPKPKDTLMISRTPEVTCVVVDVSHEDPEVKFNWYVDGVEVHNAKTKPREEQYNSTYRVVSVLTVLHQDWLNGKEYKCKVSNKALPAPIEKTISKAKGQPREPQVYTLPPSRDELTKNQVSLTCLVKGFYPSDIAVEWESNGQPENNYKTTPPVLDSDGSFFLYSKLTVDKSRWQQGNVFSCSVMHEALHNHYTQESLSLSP
# light: B1 light
# notes: copies: 2 + 2
# B9: GpH7-B3 variant V266H/GpL16-k0 (antibody, human IgG1)
# heavy: not shown
# light: B1 light
# notes: copies: 2 + 2
# B10: GpH7-B3 variant V266W/GpL16-k0 (antibody, human IgG1)
# heavy: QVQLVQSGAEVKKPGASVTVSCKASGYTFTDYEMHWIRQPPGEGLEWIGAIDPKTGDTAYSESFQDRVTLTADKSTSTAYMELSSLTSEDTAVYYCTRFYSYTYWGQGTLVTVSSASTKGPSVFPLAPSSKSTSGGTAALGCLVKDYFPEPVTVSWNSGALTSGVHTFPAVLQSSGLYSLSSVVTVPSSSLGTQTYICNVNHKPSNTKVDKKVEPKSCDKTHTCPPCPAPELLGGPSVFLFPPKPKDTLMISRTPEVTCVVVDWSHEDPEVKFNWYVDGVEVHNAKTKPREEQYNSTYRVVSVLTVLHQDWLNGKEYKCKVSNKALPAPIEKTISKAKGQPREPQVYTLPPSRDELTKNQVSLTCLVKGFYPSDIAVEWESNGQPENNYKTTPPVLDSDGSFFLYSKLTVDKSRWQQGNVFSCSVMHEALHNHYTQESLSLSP
# light: B1 light
# notes: copies: 2 + 2
# B11: GpH7-B3 variant V266E/GpL16-k0 (antibody, human IgG1)
# heavy: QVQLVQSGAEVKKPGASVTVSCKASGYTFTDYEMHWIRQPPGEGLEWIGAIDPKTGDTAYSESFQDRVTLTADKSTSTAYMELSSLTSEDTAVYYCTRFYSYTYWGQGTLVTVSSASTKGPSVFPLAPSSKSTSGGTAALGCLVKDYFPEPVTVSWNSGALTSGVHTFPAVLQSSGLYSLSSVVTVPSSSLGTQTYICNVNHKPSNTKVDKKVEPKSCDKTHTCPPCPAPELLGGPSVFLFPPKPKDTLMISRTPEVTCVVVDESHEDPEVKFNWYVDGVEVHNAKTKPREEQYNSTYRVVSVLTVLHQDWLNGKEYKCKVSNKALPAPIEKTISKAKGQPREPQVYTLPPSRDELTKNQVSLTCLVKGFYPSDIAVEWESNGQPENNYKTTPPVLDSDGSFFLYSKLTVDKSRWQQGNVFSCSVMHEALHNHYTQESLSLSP
# light: B1 light
# notes: copies: 2 + 2
# B12: GpH7-B3 variant V266P/GpL16-k0 (antibody, human IgG1)
# heavy: not shown
# light: B1 light
# notes: copies: 2 + 2
# B13: GpH7-B3 variant S239F/GpL16-k0 (antibody, human IgG1)
# heavy: not shown
# light: B1 light
# notes: copies: 2 + 2
# B14: GpH7-B3 variant V266K/GpL16-k0 (antibody, human IgG1)
# heavy: not shown
# light: B1 light
# notes: copies: 2 + 2
# B15: GpH7-B3 variant P238W/GpL16-k0 (antibody, human IgG1)
# heavy: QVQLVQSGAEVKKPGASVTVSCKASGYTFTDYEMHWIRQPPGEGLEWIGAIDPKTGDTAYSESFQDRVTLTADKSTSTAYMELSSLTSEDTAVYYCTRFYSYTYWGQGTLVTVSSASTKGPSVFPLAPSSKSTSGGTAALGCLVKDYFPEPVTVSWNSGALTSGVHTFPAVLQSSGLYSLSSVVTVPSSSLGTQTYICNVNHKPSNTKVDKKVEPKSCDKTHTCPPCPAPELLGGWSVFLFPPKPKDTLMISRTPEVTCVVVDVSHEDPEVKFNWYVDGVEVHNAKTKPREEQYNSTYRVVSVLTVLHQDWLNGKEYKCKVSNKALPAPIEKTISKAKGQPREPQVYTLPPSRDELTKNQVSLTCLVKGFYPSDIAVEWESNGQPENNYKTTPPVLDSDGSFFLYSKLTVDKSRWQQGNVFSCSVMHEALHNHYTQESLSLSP
# light: B1 light
# notes: copies: 2 + 2
# Target: T1, human FcγRIIb
# Test: SPR (Biacore);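 note: antibody variants captured on sensor chip, Fcγ receptor flowed over at 25 °C, bound receptor normalized to amount of captured antibody, expressed relative to reference antibody set as 100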
row,relative binding activity,Binder
1,18 % of GpH7-B3/GpL16-k0,B1
2,1 % of GpH7-B3/GpL16-k0,B2
3,52 % of GpH7-B3/GpL16-k0,B3
4,34 % of GpH7-B3/GpL16-k0,B4
5,29 % of GpH7-B3/GpL16-k0,B5
6,12 % of GpH7-B3/GpL16-k0,B6
7,61 % of GpH7-B3/GpL16-k0,B7
8,24 % of GpH7-B3/GpL16-k0,B8
9,14 % of GpH7-B3/GpL16-k0,B9
10,26 % of GpH7-B3/GpL16-k0,B10
11,0 % of GpH7-B3/GpL16-k0,B11
12,-3 % of GpH7-B3/GpL16-k0,B12
13,12 % of GpH7-B3/GpL16-k0,B13
14,-1 % of GpH7-B3/GpL16-k0,B14
15,13 % of GpH7-B3/GpL16-k0,B15

# Target: T4, human FcγRIa (human, UniProt P12314 16-292, limits assumed)
# T4 construct: also called FcgRIa; FcγRI (CD64)
# T4 sequence (P12314 16-292 limits assumed): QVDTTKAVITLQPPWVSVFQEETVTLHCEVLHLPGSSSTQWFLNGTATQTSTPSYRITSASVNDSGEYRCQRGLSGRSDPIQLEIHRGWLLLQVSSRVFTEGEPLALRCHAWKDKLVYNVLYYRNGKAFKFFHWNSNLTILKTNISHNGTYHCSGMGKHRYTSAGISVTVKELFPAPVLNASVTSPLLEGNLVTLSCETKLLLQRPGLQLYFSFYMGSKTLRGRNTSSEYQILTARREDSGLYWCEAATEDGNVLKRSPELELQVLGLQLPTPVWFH
# Test: SPR (Biacore);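 note: antibody variants captured on sensor chip, Fcγ receptor flowed over at 25 °C, bound receptor normalized to amount of captured antibody, expressed relative to reference antibody set as 100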
row,relative binding activity,Binder
1,91 % of GpH7-B3/GpL16-k0,B1
2,6 % of GpH7-B3/GpL16-k0,B2
3,89 % of GpH7-B3/GpL16-k0,B3
4,88 % of GpH7-B3/GpL16-k0,B4
5,97 % of GpH7-B3/GpL16-k0,B5
6,69 % of GpH7-B3/GpL16-k0,B6
7,89 % of GpH7-B3/GpL16-k0,B7
8,64 % of GpH7-B3/GpL16-k0,B8
9,62 % of GpH7-B3/GpL16-k0,B9
10,78 % of GpH7-B3/GpL16-k0,B10
11,69 % of GpH7-B3/GpL16-k0,B11
12,1 % of GpH7-B3/GpL16-k0,B12
13,77 % of GpH7-B3/GpL16-k0,B13
14,15 % of GpH7-B3/GpL16-k0,B14
15,99 % of GpH7-B3/GpL16-k0,B15

# Target: T5, human FcγRIIIa(F) (human, UniProt P08637 17-208, limits assumed)
# T5 construct: also called FcgRIIIaF; allotype F158
# T5 sequence (P08637 other isoform, or with tags, fused parts or gaps limits assumed): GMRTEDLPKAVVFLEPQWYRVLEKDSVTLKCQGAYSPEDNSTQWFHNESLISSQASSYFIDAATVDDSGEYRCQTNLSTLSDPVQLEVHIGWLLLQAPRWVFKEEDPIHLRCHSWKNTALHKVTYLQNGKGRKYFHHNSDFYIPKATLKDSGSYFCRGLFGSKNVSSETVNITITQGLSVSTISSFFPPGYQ
# Test: SPR (Biacore);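 note: antibody variants captured on sensor chip, Fcγ receptor flowed over at 25 °C, bound receptor normalized to amount of captured antibody, expressed relative to reference antibody set as 100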
row,relative binding activity,Binder
1,0 % of GpH7-B3/GpL16-k0,B1
2,0 % of GpH7-B3/GpL16-k0,B2
3,12 % of GpH7-B3/GpL16-k0,B3
4,3 % of GpH7-B3/GpL16-k0,B4
5,2 % of GpH7-B3/GpL16-k0,B5
6,6 % of GpH7-B3/GpL16-k0,B6
7,-1 % of GpH7-B3/GpL16-k0,B7
8,6 % of GpH7-B3/GpL16-k0,B8
9,0 % of GpH7-B3/GpL16-k0,B9
10,-1 % of GpH7-B3/GpL16-k0,B10
11,-1 % of GpH7-B3/GpL16-k0,B11
12,-1 % of GpH7-B3/GpL16-k0,B12
13,3 % of GpH7-B3/GpL16-k0,B13
14,-1 % of GpH7-B3/GpL16-k0,B14
15,-1 % of GpH7-B3/GpL16-k0,B15

# Target: T2, human FcγRIIa(H)
# Test: SPR (Biacore);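 note: antibody variants captured on sensor chip, Fcγ receptor flowed over at 25 °C, bound receptor normalized to amount of captured antibody, expressed relative to reference antibody set as 100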
row,relative binding activity,Binder
1,1 % of GpH7-B3/GpL16-k0,B1
2,4 % of GpH7-B3/GpL16-k0,B2
3,18 % of GpH7-B3/GpL16-k0,B3
4,11 % of GpH7-B3/GpL16-k0,B4
5,2 % of GpH7-B3/GpL16-k0,B5
6,5 % of GpH7-B3/GpL16-k0,B6
7,4 % of GpH7-B3/GpL16-k0,B7
8,19 % of GpH7-B3/GpL16-k0,B8
9,2 % of GpH7-B3/GpL16-k0,B9
10,0 % of GpH7-B3/GpL16-k0,B10
11,0 % of GpH7-B3/GpL16-k0,B11
12,-1 % of GpH7-B3/GpL16-k0,B12
13,11 % of GpH7-B3/GpL16-k0,B13
14,-1 % of GpH7-B3/GpL16-k0,B14
15,2 % of GpH7-B3/GpL16-k0,B15

# Target: T3, human FcγRIIa(R)
# Test: SPR (Biacore)
row,relative binding activity,Binder
1,13 % of GpH7-B3/GpL16-k0,B1
2,4 % of GpH7-B3/GpL16-k0,B2
3,66 % of GpH7-B3/GpL16-k0,B3
4,47 % of GpH7-B3/GpL16-k0,B4
5,26 % of GpH7-B3/GpL16-k0,B5
6,11 % of GpH7-B3/GpL16-k0,B6
7,49 % of GpH7-B3/GpL16-k0,B7
8,38 % of GpH7-B3/GpL16-k0,B8
9,22 % of GpH7-B3/GpL16-k0,B9
10,37 % of GpH7-B3/GpL16-k0,B10
11,-3 % of GpH7-B3/GpL16-k0,B11
12,-5 % of GpH7-B3/GpL16-k0,B12
13,20 % of GpH7-B3/GpL16-k0,B13
14,0 % of GpH7-B3/GpL16-k0,B14
15,25 % of GpH7-B3/GpL16-k0,B15
